Experimental data taken from PMC10296094 (2023).

Experiments:
[1] = biological target: fluorescein-labelled PMCA peptide (Bos taurus (Bovine), UniProt D3K0R6, fluorescein attached to the C-terminal native Lys); assay: fluorescence polarisation/anisotropy; Ca2+ (1 mM CaCl2)
[2] = biological target: fluorescein-labelled CaMKII peptide (Homo sapiens (Human), UniProt Q9UQM7, fluorescein attached to the non-native cysteine added to the N-terminus); assay: as above
Chain of fluorescein-labelled CaMKII peptide (Q9UQM7 other isoform, or with tags, fused parts or gaps): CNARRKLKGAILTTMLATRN

Chain of fluorescein-labelled PMCA peptide (D3K0R6 1086-1105): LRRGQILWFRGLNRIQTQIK

binding result [1]: no binding
binding result [2]: no binding
B1: His6-tagged human centrin1 (protein)
chain: MASGFKKPSAASTGQKRKVAPKPELTEDQKQEVREAFDLFDVDGSGTIDAKELKVAMRALGFEPRKEEMKKMISEVDREGTGKISFNDFLAVMTQKMSEKDTKEEILKAFRLFDDDETGKISFKNLKRVANELGENLTDEELQEMIDEADRDGDGEVNEEEFLRIMKKTSLY
